Experiments:
hen egg lysozyme (hen) [1] = target: hen egg lysozyme (hen) (UniProt P00698); assay: BIAcore, HEL coated chip
hen egg lysozyme (hen) [2] = target: hen egg lysozyme (hen) (UniProt P00698); assay: phage ELISA, 50 µl phage supernatant, anti-M13 detection; background 0.1

Chain of UniProt P00698 (P00698 19-147 limits assumed): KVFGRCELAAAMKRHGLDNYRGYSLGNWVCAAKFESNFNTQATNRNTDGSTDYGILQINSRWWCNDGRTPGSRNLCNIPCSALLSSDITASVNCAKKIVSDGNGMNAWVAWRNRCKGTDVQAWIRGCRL

chimaeric FabD1.3
koff (hen egg lysozyme (hen) [1]): 0.003 s⁻¹

NQ11/D1.3/0 bispecific diabody displayed on phage (pHEN1) (bispecific antibody)
absorbance signal (hen egg lysozyme (hen) [2]): 2.8

construct VI bispecific NQ11/D1.3 diabody, 5-residue linkers (bispecific antibody)
koff (hen egg lysozyme (hen) [1]): 0.0022 s⁻¹
